The record followed here is paper PMC10054981 (bioRxiv, 2023).

The chains are these.
B1: Speckle-type POZ protein (SPOP) wild type, residues 28-359 (domain or fragment)
chain: KVVKFSYMWTINNFSFCREEMGEVIKSSTFSSGANDKLKWCLRVNPKGLDEESKDYLSLYLLLVSCPKSEVRAKFKFSILNAKGEETKAMESQRAYRFVQGKDWGFKKFIRRDFLLDEANGLLPDDKLTLFCEVSVVQDSVNISGQNTMNMVKVPECRLADELGGLWENSRFTDCCLCVAGQEFQAHKAILAARSPVFSAMFEHEMEESKKNRVEINDVEPEVFKEMMCFIYTGKAPNLDKMADDLLAAADKYALERLKVMCEDALCSNLSVENAAEILILADLHSADQLKTQAVDFINYHASDVLETSGWKSMVVSHPHLVAEAYRSLASA
B2: SPOP R354H, residues 28-359 (domain or fragment)
chain: KVVKFSYMWTINNFSFCREEMGEVIKSSTFSSGANDKLKWCLRVNPKGLDEESKDYLSLYLLLVSCPKSEVRAKFKFSILNAKGEETKAMESQRAYRFVQGKDWGFKKFIRRDFLLDEANGLLPDDKLTLFCEVSVVQDSVNISGQNTMNMVKVPECRLADELGGLWENSRFTDCCLCVAGQEFQAHKAILAARSPVFSAMFEHEMEESKKNRVEINDVEPEVFKEMMCFIYTGKAPNLDKMADDLLAAADKYALERLKVMCEDALCSNLSVENAAEILILADLHSADQLKTQAVDFINYHASDVLETSGWKSMVVSHPHLVAEAYHSLASA

In series [1] the target is fluorescently labeled peptide derived from a SPOP-binding motif from the substrate Puckered. Briefly: fluorescence polarisation.
The series “CG-MALS” concerns the molecule itself. Briefly: CG-MALS.
Series [2] concerns the target B1. Description: fluorescence polarisation. On the technique in general: In fluorescence polarisation assays a small probe gives low polarisation when free and higher when bound to something large.
The target in series [3] is SPOP R221C, residues 28-359 (human, UniProt O43791 28-359, R221C). Description: fluorescence polarisation.
Series [4] concerns the target B2. Briefly: fluorescence polarisation.

With “SPOP R221C, residues 28-359 (from UniProt O43791 28-359) (domain or fragment)”, the Kd in series [1] is 5.9 µM.
In turn, “SPOP mutBACK (Y353E), residues 28-359 (from UniProt O43791 28-359) (domain or fragment)” showed a Kd in series [1] of 4.3 µM.
The same measure, in the same setting: the value for “Speckle-type POZ protein (SPOP) wild type, residues 28-359 (from UniProt O43791 28-359) (domain or fragment)” was 9.8 µM; that for “SPOP R354H, residues 28-359 (from UniProt O43791 28-359) (domain or fragment)” was 5.1 µM.
B1 yielded a Kd in “CG-MALS” of 2.7 µM.
B2: in “CG-MALS”, binding was put at a Kd of 26.9 µM.

B3: C-terminal intrinsically disordered region (IDR) of DAXX (cDAXX), fluorescently labeled (domain or fragment)
chain: SPMSSLQISNEKNLEPGKQISRSSGEQQNKGRIVSPSLLSEEPLAPSSIDAESNGEQPEELTLEEESPVSQLFELEIEALPLDTPSSVETDISSSRKQSEEPFTTVLENGAGMVSSTSFNGGVSPHNWGDSGPPCKKSRKEKKQTGSGPLGNSYVERQRSVHEKNGKKICTLPSPPSPLASLAPVADSSTRVDSPSHGLVTSSLCIPSPARLSQTPHSQPPRPGTCKTSVATQCDPEEIIVLSDSD
For the molecule B3, the dissociation constant Kd in series [2] stood at 1.2 µM; in series [3], 3.2 µM; in series [4], 3 µM.

What is called Kd is the concentration at which binding is half-saturated. High values mean a looser complex, low ones a tighter complex.
